Source: publication doi:10.1101/2021.09.17.460839
Substitutions are numbered along the chain they refer to.

Columns and labels:
[1] = biological target: T1, Rv0792c G80D G80D (Mycobacterium tuberculosis) (UniProt O86331); experiment: ALISA
T1 sequence: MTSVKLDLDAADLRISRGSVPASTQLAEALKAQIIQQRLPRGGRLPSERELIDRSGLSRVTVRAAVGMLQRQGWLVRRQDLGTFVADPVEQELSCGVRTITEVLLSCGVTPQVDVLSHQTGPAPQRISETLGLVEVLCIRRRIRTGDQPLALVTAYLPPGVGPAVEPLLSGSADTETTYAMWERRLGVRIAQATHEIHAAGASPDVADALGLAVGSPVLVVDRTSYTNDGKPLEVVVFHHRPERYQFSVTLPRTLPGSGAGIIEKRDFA

[2] = biological target: T2, Rv0792c R49A R49A (Mycobacterium tuberculosis) (UniProt O86331); experiment: ALISA
T2 sequence: T1 sequence with R49A, D80G

TCTAGTCATTCGTCATAATCCCATCTGTTTCTTCCTCCTTCCGT [Rv0792c_2 aptamer (printed Rv0729c_2)]
Kd [1]: 120 nM | Kd [2]: 74 nM
